T1: ANK1-F2 (ankyrin 1 membrane-binding domain fragment 2, aa 250–568) (human, UniProt P16157 250-568)
T1 construct: amplified from cDNA of human reticulocyte mRNA; also called HA-ANK1-F2; HA-tagged ANK1-F2; source: E. coli BL21 (DE3) pLysS, pET30a, purified; not shown: HA, C-terminal, kept
T1 sequence (looked up): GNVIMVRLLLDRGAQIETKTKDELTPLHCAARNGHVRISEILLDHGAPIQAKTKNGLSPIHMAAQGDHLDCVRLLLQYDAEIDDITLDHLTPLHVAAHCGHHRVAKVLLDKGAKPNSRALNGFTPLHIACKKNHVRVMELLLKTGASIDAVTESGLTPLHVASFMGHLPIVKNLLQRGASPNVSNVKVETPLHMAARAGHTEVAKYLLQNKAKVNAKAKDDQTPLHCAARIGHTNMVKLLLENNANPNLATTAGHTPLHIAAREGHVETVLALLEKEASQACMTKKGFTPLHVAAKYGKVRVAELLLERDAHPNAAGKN

B1: recombinant PfGAMA-Tr3 (P. falciparum glycosylphosphatidylinositol-anchored micronemal antigen, aa 500–715) (domain or fragment)
chain: KDIIKLLKDLIKYLHIVKFENNEPTTNIDEEGIRKLLENSFFDLNDDILIVRLLLKPQTVILTVIQSFMLMTPSPSRDAKAYCKKALINDQLVPTNDTNILSEENELVNNFSTKYVLIYEKMKLQELKEMEESKLKMKYSKTNLSALQVTNPQNNKDKNDASNKNNNPNNSSTPLIAVVTDLSGEKTEDIINNNVDIATLSVGVQNTFQGPNAKAG
notes: PfGAMA, P. falciparum, PF3D7_0828800, 738-amino acid protein; Cloned into BamH1/Xho1 sites of pET30a; further vector-encoded residues may be present; also called His-PfGAMA-Tr3; Flag-PfGAMA-Tr3; source: E. coli BL21 (DE3) pLysS, pET30a, purified (Ni-NTA); not shown: Flag, C-terminal, kept
B2: recombinant PvGAMA-F2 (P. vivax glycosylphosphatidylinositol-anchored micronemal antigen, aa 345–589) (domain or fragment)
chain: DVSVDEKGDRATTAGGNQSASVAAAAPKDAGPTVAAPNTAATLKTAASPNAAATNTAAPPNMGATSPLSNPLYGTSSLQPKDVAVLVRDLLKNTNIIKFENNEPTSQMDDEEIKKLIESSFFDLSDNTMLMRLLIKPQAAILLIIESFIMMTPSPTRDAKTYCKKALVNGQLIETSDLNAATEEDDLINEFSSRYNLFYERLKLEELREIEQNRKALKNSKGTLSVLEVANSQNAPDGKGVNGSG
notes: PvGAMA, P. vivax, PVX_088910, 771-amino acid protein; Cloned into BamH1/Xho1 sites of pET30a; further vector-encoded residues may be present; also called His-PvGAMA-F2; source: E. coli BL21 (DE3) pLysS, pET30a, purified (Ni-NTA); not shown: Flag, C-terminal, kept

Target: T1, ANK1-F2 (ankyrin 1 membrane-binding …)
Assay: SPR; BIAcore S200, 25 °C, HBS-EP pH 7.4; ANK1-F2 immobilised on a CM5 chip, PfGAMA-Tr3 or PvGAMA-F2 injected at varying concentrations; response at equilibrium against concentration, 1:1 Langmuir model
Conditions: both partners purified

| Binder | Kd |
| --- | --- |
| B1 | 0.166 µM |
| B2 | 13.8 µM |

From paper PMC8931436, “Glycosylphosphatidylinositol-anchored micronemal antigen (GAMA) interacts with the band 3 receptor to promote erythrocyte invasion by malaria parasites” (The Journal of Biological Chemistry, 2022)
